Primed or numbered codes have the meaning given here. The star is where a group is joined. (^19F)FBA = O=C(c1ccc([19F])cc1)*; PEG11′ = not defined here
B1: [^19F]FBA-RSDLTPLF-NH2 (peptide)
peptide: {(^19F)FBA}-RSDLTPLF-NH2
B2: [^19F]FBA-PEG11-RSDLTPLF-NH2 (peptide)
peptide: {(^19F)FBA-PEG11′}-RSDLTPLF-NH2
B3: [^19F]FBA-PEG11-RSDLTPLF-PEG11-NH2 (peptide)
peptide: {(^19F)FBA-PEG11′}-RSDLTPLF-{PEG11′-NH2}
B4: [^19F]FBA-RSDLTPLF-PEG11-NH2 (peptide)
peptide: {(^19F)FBA}-RSDLTPLF-{PEG11′-NH2}
B5: H-…([^19F]FBA)-NH2 (peptide)
peptide: H-RSDLTPLFK((^19F)FBA)-NH2

Biological target: T1, αvβ6 integrin (purified, captured on the ELISA plate), P06756
T1 chain 1: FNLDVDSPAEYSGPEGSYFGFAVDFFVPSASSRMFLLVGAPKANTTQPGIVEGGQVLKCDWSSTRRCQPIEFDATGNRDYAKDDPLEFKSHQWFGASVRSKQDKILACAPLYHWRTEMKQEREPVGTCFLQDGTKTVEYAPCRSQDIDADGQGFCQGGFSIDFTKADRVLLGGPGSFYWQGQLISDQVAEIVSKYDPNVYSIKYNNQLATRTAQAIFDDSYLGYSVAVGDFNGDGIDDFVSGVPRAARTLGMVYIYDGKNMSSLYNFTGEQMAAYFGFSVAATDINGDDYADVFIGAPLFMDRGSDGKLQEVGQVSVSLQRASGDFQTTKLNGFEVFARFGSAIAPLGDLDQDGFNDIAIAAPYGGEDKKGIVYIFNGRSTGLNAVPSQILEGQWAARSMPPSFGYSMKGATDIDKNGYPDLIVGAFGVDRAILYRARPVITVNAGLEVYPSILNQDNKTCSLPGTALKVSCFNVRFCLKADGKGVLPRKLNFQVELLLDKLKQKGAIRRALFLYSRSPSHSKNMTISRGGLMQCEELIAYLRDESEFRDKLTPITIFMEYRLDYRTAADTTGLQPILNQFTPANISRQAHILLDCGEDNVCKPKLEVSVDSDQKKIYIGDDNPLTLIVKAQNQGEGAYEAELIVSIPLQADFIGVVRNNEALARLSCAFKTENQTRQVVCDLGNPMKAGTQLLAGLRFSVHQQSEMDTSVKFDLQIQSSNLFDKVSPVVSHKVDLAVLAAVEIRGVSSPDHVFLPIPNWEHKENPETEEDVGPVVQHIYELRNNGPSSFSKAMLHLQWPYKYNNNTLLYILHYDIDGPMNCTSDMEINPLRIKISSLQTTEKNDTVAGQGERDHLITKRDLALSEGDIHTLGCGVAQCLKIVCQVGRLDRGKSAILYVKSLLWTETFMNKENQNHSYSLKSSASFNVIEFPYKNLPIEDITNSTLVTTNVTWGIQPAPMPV
T1 chain 2: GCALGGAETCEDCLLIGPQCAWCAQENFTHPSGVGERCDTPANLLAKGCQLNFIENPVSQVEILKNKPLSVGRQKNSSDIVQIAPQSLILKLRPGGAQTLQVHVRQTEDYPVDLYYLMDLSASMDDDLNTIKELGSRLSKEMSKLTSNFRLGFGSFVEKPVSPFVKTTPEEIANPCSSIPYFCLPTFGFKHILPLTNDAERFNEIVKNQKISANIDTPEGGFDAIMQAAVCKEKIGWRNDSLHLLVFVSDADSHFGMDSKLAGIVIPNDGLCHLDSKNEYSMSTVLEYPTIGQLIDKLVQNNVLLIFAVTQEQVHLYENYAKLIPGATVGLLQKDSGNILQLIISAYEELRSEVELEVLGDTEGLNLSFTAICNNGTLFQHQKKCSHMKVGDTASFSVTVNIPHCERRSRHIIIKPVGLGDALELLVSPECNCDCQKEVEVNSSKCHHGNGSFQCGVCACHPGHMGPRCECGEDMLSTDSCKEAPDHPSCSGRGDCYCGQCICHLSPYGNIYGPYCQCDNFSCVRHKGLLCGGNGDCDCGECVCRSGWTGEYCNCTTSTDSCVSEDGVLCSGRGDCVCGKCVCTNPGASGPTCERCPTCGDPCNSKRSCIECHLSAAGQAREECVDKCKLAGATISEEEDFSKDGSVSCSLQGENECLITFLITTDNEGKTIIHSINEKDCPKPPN
Assay: competitive ELISA; captured αvβ6; competitor biotinylated fibronectin

Row | Binder | IC50 [nM]
1 | B1 | 7
2 | B2 | 40
3 | B3 | 25
4 | B4 | 40
5 | B5 | 34
